Test results from the RNAGym collection of RNA variant scans (doi:10.1073/pnas.2313332121).

B1: TPR t1 (parent)
chain: GACCAAUCUGCCCUCAGAGCUCGAGAACAUCUUCGGAUGCAGAGGAGGCAGGCUUCGGUGGCGCGAUAGCGCCAACGUCCUCAACCUCCAAUGCAUCCCACCACAUGAUGAUGCCUGAAGAGCCUUGGUUUUUUG

Variants of: B1
Experiment: polymerase ribozyme fitness, log enrichment relative to wild type (log ratio); higher = more active; in vitro selection for triplet polymerase activity
How it was run: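 A heterodimeric triplet polymerase ribozyme had each of its subunits mutagenized by PCR into a library, which was transcribed. One round of in vitro selection, done in triplicate, annealed each library with a biotinylated primer, its partner subunit and triplets, then incubated it frozen at −7 °C before gel excision of extended constructs, streptavidin-bead capture and RT-PCR. Fitness is the logarithm of genotype enrichment relative to wild-type enrichment, based on Illumina sequencing of inputs and outputs and inverse-variance-weighted replicate averages. A base-2 logarithm is used, and genotypes were kept only with ≥10 input reads and ≥1 read per output.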
For C73A C101G, the “polymerase ribozyme fitness (log ratio)” value was -1.26. For C73A C101U, the “polymerase ribozyme fitness (log ratio)” value was 0.2. In the case of C72U C82U, the “polymerase ribozyme fitness (log ratio)” value is reported as -0.823. With C72U C82A the “polymerase ribozyme fitness (log ratio)” value was -0.812. In the case of C73A A119U U132C, the “polymerase ribozyme fitness (log ratio)” value is reported as -0.485. For C73A C80G, the “polymerase ribozyme fitness (log ratio)” value was -5.69. For C73A C82G G117U U130C, the “polymerase ribozyme fitness (log ratio)” value was -0.953. For C73G A95C, the “polymerase ribozyme fitness (log ratio)” value was -2.83. For C73A U92C, the “polymerase ribozyme fitness (log ratio)” value was -0.541. In the case of C73A U92A, the “polymerase ribozyme fitness (log ratio)” value is reported as -2.45. With C72U U87G the “polymerase ribozyme fitness (log ratio)” value was -1.61. In the case of C73A U109G, the “polymerase ribozyme fitness (log ratio)” value is reported as -4.56. With C72U C88U U131C U133A the “polymerase ribozyme fitness (log ratio)” value was -0.924. With C72U G77C the “polymerase ribozyme fitness (log ratio)” value was -1.07. With C73A U130C the “polymerase ribozyme fitness (log ratio)” value was -0.0885. In the case of C73G A91C G127A, the “polymerase ribozyme fitness (log ratio)” value is reported as -3.34. With C72U C79U G122A the “polymerase ribozyme fitness (log ratio)” value was -0.67. With C73G A105C the “polymerase ribozyme fitness (log ratio)” value was -3.81. For C72U C88U C124A, the “polymerase ribozyme fitness (log ratio)” value was 0.938. In the case of C73A C99U A118G, the “polymerase ribozyme fitness (log ratio)” value is reported as -3. In the case of C73G, the “polymerase ribozyme fitness (log ratio)” value is reported as -0.606. For C73A, the “polymerase ribozyme fitness (log ratio)” value was 0.0792. For C73A G107A, the “polymerase ribozyme fitness (log ratio)” value was -5.21. With C72U C79U C82A the “polymerase ribozyme fitness (log ratio)” value was -0.964. For C73A A74U C85U C94U C115U, the “polymerase ribozyme fitness (log ratio)” value was -3.24. With C72U C124U the “polymerase ribozyme fitness (log ratio)” value was 0.818. For C72U C124A, the “polymerase ribozyme fitness (log ratio)” value was 1.54. In the case of C73A C94A C102A, the “polymerase ribozyme fitness (log ratio)” value is reported as -2.96. With C72U U81C G93C A119U G120C the “polymerase ribozyme fitness (log ratio)” value was -0.213. In the case of C72U C101G G120C, the “polymerase ribozyme fitness (log ratio)” value is reported as -1.35. With C73G C82A the “polymerase ribozyme fitness (log ratio)” value was -1.99. In the case of C73A C88A G117U, the “polymerase ribozyme fitness (log ratio)” value is reported as -4.07. For C72U U78C, the “polymerase ribozyme fitness (log ratio)” value was -0.528. For C72U C85U G93U, the “polymerase ribozyme fitness (log ratio)” value was -2.45. For C73G A83G, the “polymerase ribozyme fitness (log ratio)” value was -1.44. For C72U C102A G120U, the “polymerase ribozyme fitness (log ratio)” value was -2.07. In the case of C73G A121G, the “polymerase ribozyme fitness (log ratio)” value is reported as 1.16. With C73G A108C A118U C123G the “polymerase ribozyme fitness (log ratio)” value was -4.86. With C73A U109C C114G C115A G122U the “polymerase ribozyme fitness (log ratio)” value was -7.04. With C72U G113C the “polymerase ribozyme fitness (log ratio)” value was -2.1. In the case of C72U G113U, the “polymerase ribozyme fitness (log ratio)” value is reported as -2.87. With C72U U92G the “polymerase ribozyme fitness (log ratio)” value was -2.59. For C72U C101A C115A C123A, the “polymerase ribozyme fitness (log ratio)” value was -3.06. For C72U C104A, the “polymerase ribozyme fitness (log ratio)” value was -2.05. With C73G A75U A83U the “polymerase ribozyme fitness (log ratio)” value was -1.08. For C73A U87G U129A, the “polymerase ribozyme fitness (log ratio)” value was -1.12. For C72U C123A, the “polymerase ribozyme fitness (log ratio)” value was 0.21. With C72U C115U the “polymerase ribozyme fitness (log ratio)” value was -0.526. In the case of C72U C115G, the “polymerase ribozyme fitness (log ratio)” value is reported as -2.33. In the case of C72U C82A A84C A111C, the “polymerase ribozyme fitness (log ratio)” value is reported as 0.731. In the case of C72U C76U G122A, the “polymerase ribozyme fitness (log ratio)” value is reported as -1.21. In the case of C73A U112A A121U U125A, the “polymerase ribozyme fitness (log ratio)” value is reported as 1.73. In the case of C73A G135U, the “polymerase ribozyme fitness (log ratio)” value is reported as -1.25. In the case of C72U G117A, the “polymerase ribozyme fitness (log ratio)” value is reported as -1.29. For C72U G117U, the “polymerase ribozyme fitness (log ratio)” value was -2.27. For C72U U78A A90U C123U, the “polymerase ribozyme fitness (log ratio)” value was -1.05. With C73G A95C C124U G128U U129C the “polymerase ribozyme fitness (log ratio)” value was -1.71. In the case of C72U G113C A118C, the “polymerase ribozyme fitness (log ratio)” value is reported as -3.51. In the case of C73A U133A, the “polymerase ribozyme fitness (log ratio)” value is reported as 0.106. With C72U U96C G135U the “polymerase ribozyme fitness (log ratio)” value was -1.42. For C73A A111U, the “polymerase ribozyme fitness (log ratio)” value was -2.93. With C72U U109G G113A the “polymerase ribozyme fitness (log ratio)” value was -5.96. In the case of C72U C97U G120A G122A, the “polymerase ribozyme fitness (log ratio)” value is reported as -1.22. For C73A U92A C104U, the “polymerase ribozyme fitness (log ratio)” value was -2.28. For C72U C80A U87C, the “polymerase ribozyme fitness (log ratio)” value was -3.67. In the case of C72U C76G, the “polymerase ribozyme fitness (log ratio)” value is reported as -0.525. With C72U C76A the “polymerase ribozyme fitness (log ratio)” value was -0.968. With C73A C89U G110C the “polymerase ribozyme fitness (log ratio)” value was -5.15. For C73A C86A, the “polymerase ribozyme fitness (log ratio)” value was -0.668. For C72U U81C U116A, the “polymerase ribozyme fitness (log ratio)” value was -3.5. In the case of C72U U78C C86G G127C, the “polymerase ribozyme fitness (log ratio)” value is reported as -2.25. With C72U C102A C123G the “polymerase ribozyme fitness (log ratio)” value was -0.477. For C72U C73A U81A C85U G122A, the “polymerase ribozyme fitness (log ratio)” value was -4.88. For C73A G127C, the “polymerase ribozyme fitness (log ratio)” value was -1.98. With C72U U112G the “polymerase ribozyme fitness (log ratio)” value was 0.605. With C72U C124U G135A the “polymerase ribozyme fitness (log ratio)” value was 2.03. In the case of C73A U116A C124A, the “polymerase ribozyme fitness (log ratio)” value is reported as 0.809. For C72U U87G C104A, the “polymerase ribozyme fitness (log ratio)” value was -0.492. With C72U G122A the “polymerase ribozyme fitness (log ratio)” value was -0.576. For C72U G93A C115U, the “polymerase ribozyme fitness (log ratio)” value was -1.52. For C73A C115G, the “polymerase ribozyme fitness (log ratio)” value was -2.61. In the case of C73A C115U, the “polymerase ribozyme fitness (log ratio)” value is reported as -1.36. In the case of C72U U125G, the “polymerase ribozyme fitness (log ratio)” value is reported as -2.26. For C72U U125C, the “polymerase ribozyme fitness (log ratio)” value was -1.92.
